From a protein production outcome set (Wang et al. 2014) come the findings set out here.

The nature of this series: label from the status in PepcDB records.
For “MMAERPQPVAAPEEDEIDLGQLLGQIWHGKLWIGSATLAAGMLGLAWLANTAPTYRADTLLQLEEKASPLALPTALSELAGGEARSATEVEILRSRLVLGEAVAAFHLDWEAKPLRAPLVGQAVASGVLPLPEVEGLIRYDRGDSRIRLDLLEVPPEWVEEPILLTAMGEGQFALLLPDGREETGEVGRPLAVPDRGFGLRIGALEGVRGRQFVIRQLDETGAIGALRDRLTVAERGKQSSILEVGLTGRDPAEVQRTLGGIAEAYLRQNMTRSAAEAESSLEFIEGQLPEAQKAVRAAEDRLNAYRQAQQAIDLGFEGQSLLTQISAIETELRQLADQEEEIANRYTSNHPTYQRLLAMRGRLEERLAALRKEVSNLPETQREVFNFTRDLEVAQEVYLQLLNRAQELRVVKASTIGNVRIVDGARTAPEPVAPRRGRTLALALLLGALSGTGLVLGRAWLRRSVRGPEELDRLGLPVFATVLFAPAAVGNRKGRGLLPILALSDPNSATVEGIRSLRTSLHFGMLDAGSRSIALTSSAPAAGKSFTSVNLAVVAAQAGQSVCLIDADLRRGHLRRYFAVAKGTPGLAEYLAGEAELDELLRPGPVEGLAFLSTGQLPPNPSELLMRPRLAELVAELDRRFDLSIFDAPPVLAVTDPVVIGRAVGATIAVVRHDVTGLGEVEALIRQLQGAGVKPAGAVLNAYRPQRGSGRYGYGYGYRYRYDTGYRPQSGD”, the protein production entry was “failed”.
As for “MMAKIDVELKKLHQILVDRDYFYQVPDYQRPYVWDKDHLGALIDDLVGSYTNNREDEYFCGSIVIVENQKDKRWDVVDGQQRLTSFIILACTILRLYKHSLGQESKDFIEDSIYDRYDKEKERLKFLTAQNYNSIFENTVLNHLEFEDNIKKSELNKKFEENTYLRNAYYFKELLNESVENGSISDIDDFVKWFYEHIVLTRIICFEQDSAMQIFQVLNDRGQPLSPIDILKSSLMQEIKQDSEKRKDFITTWDKLVEACKSVEGVDIDLEDFFNMYLEYADPSTSKKRADKGLKKVFKDSKKDACGFIYEISEFMKAYTALLKKQDRYVYLLRYLPSRYWASILTTALYVKYPDFDALKKLLVSYYYQTWIAGGTITRIKQTSINIIKNVKSNKSVETIKELILNSIDSYNTFDQYLYNLWDSSSVYHSKWVRPVLALANYFMADEEKPHFIAMDAETQVEHILPQTPKRGSQWNADFDKEKREEWVNNIANLTLLKRKKNAHALNGDFDEKRKIYGGKDTSKVISCYDITKELYSNYRKWNEKSLQERYKSLYNTITPVLHIEGQEDDFEDDFDLE”, the protein production result is recorded as “failed”.
For the sequence “MMALQEEKGKPVHCERHHESSSVDTEPGLEESKEVIKWKRLPGQACRIPNKHLFSLNAGERGCFCLDFSHNGRILAAACASRDGYPIILYEIPSGRFMRELCGHLNIIYDLSWSKDDHYILTSSSDGTARIWKNEINNTNTFRVLPHPSFVYTAKFHPAVRELVVTGCYDSMIRIWKVEMREDSAILVRQFDVHKSFINSLCFDTEGHHMYSGDCTGVIVVWNTYVKINDLEHSVHHWTINKEIKETEFKGIPISYLEIHPNGKRLLIHTKDSTLRIMDLRILVARKFVGAANYREKIHSTLTPCGTFLFAGSEDGIVYVWNPETGEQVAMYSDLPFKSPIRDISYHPFENMVAFCAFGQNEPILLYIYDFHVAQQEAEMFKRYNGTFPLPGIHQSQDALCTCPKLPHQGSFQIDEFVHTESSSTKMQLVKQRLETVTEVIRSCAAKVNKNLSFTSPPAVSSQQSKLKQSNMLTAQEILHQFGFTQTGIISIERKPCNHQVDTAPTVVALYDYTANRSDELTIHRGDIIRVFFKDNEDWWYGSIGKGQEGYFPANHVASETLYQELPPEIKERSPPLSPEEKTKIEKSPAPQKVK”, the protein production result is “failed”.
For “MMASYLSTPSVSYSMKSYDPVKVLYTVIISLVSLYTLYITSAFFYVLILSALFAYIIHPVYFFCIRFVKSKQICALIPLGTIFLITLASGVMIVKALMNEISRILEIPNTINGFANMDLRRIVGLFEPLIQTHPGKLTESIGAYLNSLVTDYVPQIQNNIFQISTGLSILIIELIVIVVLTYYLLVESETIATELPNLFPDRKVGVVFLGELNYIYQNLFIVYFLTCLITGIIGGVLYWALGVPYSLIWGILTFIMALLPVVGAGTVYGLLALYYVLIDDFFTAGALIFLGIVFLSIIPDFIMRPRFARNRAAIHPAITLVAFAAPVFVLGPIGIIIGPLTYGFLLAAFRTRKILGTSSAQTESSAAGSPEDLVGSQREKSDESPVGRSVERPVKASGERSRSGN”, the protein production result is listed as “failed”.
The same measure for “MMCGGRGTRLDAAAEKPLFEVGGRAMVDHVRAALEAAGRIDTTHAAVSPHAPDTAAHLAATPLSLIETPGDGYVADLTAALDAVGTPVLTVAADLPLLAPAVVDTVVAAADGATTSACVPRALKHELGVSTDADADAWVPTGVNVVGGGDTEATHRSFDARLAVNVNHRSDAAVAARLLAATDRRNHPRLEHHHHHH”: “failed”; for “MMDLHTHTVYSDGIGLIRDNVAWAEKRGLKIVGISDHIHFFTPSRFSAYINEINVIKEESEIVVLAGIEANILENGPDITDEFRKKLDYAIASVHEWFGRNGTHEYINYVKKAIMDDNVDIIGHFGNSFPWIGYPTREEIDEILDLAEAYGKAFEISARYKVPDLEFIRECVKRGIKLSLATDAHRPEDVGKVSWSLKMLEKAGGTKEDLIFSEYL”: “failed”; for “MMDSIAGPIQVLSRQFPNAQQGKGAALNHAFQIVLTDAEKGHYSWDQVLVGVVDADGFFSENIVNELTAVFTDTTVCAAQTRIKMKDVTNFMFIAQDVEFFTINNFIQKARRATKTIGLGGNGQFFRLSMITEHLGYQPWGNALLDDYELTIKLMLKELSIAYIDEAFMAQEALRDVKRFIRQRSRWVQGNLDCLAYLPRVIKSKSLTLRQKCGIYYFLAQPFINLVAGMLVFVLTGLQLQHLYRLGFSLSLVISFVLAVSISLVFGIFFTINYYRELKNFQLKVPAKLGLIILPFTISYMYLILFVSVVMAYYRFIKGNSTWIKTERN”: “failed”.
In the case of “MMEDDGQPRTLYVGNLSRDVTEVLILQLFSQIGPCKSCKMITEHTSNDPYCFVEFYEHRDAAAALAAMNGRKILGKEVKVNWATTPSSQK”, the protein production result is given as “not failed”.
Take “MMEERAAAAVASAASSCRPLGSGTAPNPTAAAPASSPAPGPGPVGKGGGGGGSPGPTAGPEPLSLPGILHFIQHEWARFEAEKARWEAERAELQAQVAFLQGERKGQENLKTDLVRRIKMLEYALKQERAKYHKLKFGTDLNQGEKKTDLSEQVSNGPVESVTLENSPLVWKEGRQLLRQYLEEVGYTDTILDMRSKRVRSLLGRSLELNGAGEPVEGAPRASPGPGGLSGGESLLVKQIEEQIKRNAAGKDGKERLGGSVLEQIPFLQNCEDEDSDEDDELDSVQHKKQRVRLPSKALVPEMEDEDEEDDSEDAINEFDFLGSGEDGEGSPDPRRCTSEGNPHELESRRVKLQGILADLRDVDGLPPKVTVPPPGTPQPRPHEGSFGFSSDVFIMDTIGGGEVSLGDLADLTVTNDNDLSCDLSDSKDAFKKTWNPKFTLRSHYDGIRSLAFHHSQSALLTASEDGTLKLWNLQKAVTAKKNAALDVEPIHAFRAHRGPVLAVTMGSNSEYCYSGGADARIHSWKIPDLNMDPYDGYDPSVLSHVLEGHGDAVWGLAFSPTSQRLASCSADGTVRIWDPSSSGPSCLCTFPMDGEHGIPTSVAFTSTEPAHVVASFRSGDTVLYDLEAGSALLTLESRGSSGPAQINQVVSHPSQPLTITAHDDRGIRFLDNRTGKSVHSMVAHLDAVTCLAVDPNGVFLMSGSHDCSLRLWSLDNKTCVQEITAHRKKHEEAIHAVACHPSKALIASAGADALAKVFV”: the protein production result is listed as “failed”.
With “MMEKIMEYLQLSDEVVDDGEAPRVEEFLGEGKSFYENFSLRGIRVNRVEPGFISCSFKVPLRLTDRDKNLANGAIANLVDEVGGALVHGEGLPMSVSVDMSIAFLSKAKLGEELEITSRLLGERGGYKGTIVVVRNKMTGEIIAEGRHSMFGRQASKL”, the protein production result is reported as “failed”.
On to “MMELDLPATIKRDMKFRYLLIIVPLLFPAHIFGQELPDLGDVSQASVTPHQERQIGIQIMREIRADSSYLDDPEIADYLTRLGNRLIAASGQTNPDNPFEFFAINDSSINAFALPGAFVGFHSGLITAAQNESELAGVMAHEIAHVTQKHLARMISGTSYLGLLGSIAALAIAILASRSNPNAGQAVLATAQASAIQSQLNFTRKHEKEADRVGFNMLIKAGFDPHGMSSFFERMQHASRYYENGMPSYLMTHPVTHERIADIQNRTQELGYRQVPDSLEFHLVRAKIRASRGNPASVINEFKARLQDKRYINEIAEQYGLIQALLRARQFKQADEELNTLYRTIQSDSSAQSLKNHRLGKSIQVDGDYLQSAAMIETLAARVKFASGQTDDAFRLYQSALQSFPHYRALVYGYADALLQHKDAQAALDFINGQSQFIHDDIRLYRLTAQCHAALGNALLQHQAEAEALIREGNLRAAIEQLQIALRHKHDNFYQLSSVEARLRQIKEFVAAEKEKK”, for which the protein production entry is on record as “failed”.
